Measured values published in the supplement of paper PMC12764529.
± gives the half width of the 95% confidence interval.

Assay: folding stability dG unfold from trypsin proteolysis; higher = more stable
Method in brief: (§1)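 Designed mini-proteins (under 80 residues, no cysteine) in a PA-tagged cDNA display construct were digested with trypsin and chymotrypsin. Each protease was used at 11 concentrations (threefold dilutions) plus a no-protease condition, followed by sequencing. K50 was inferred by Bayesian fitting of sequencing counts, and unfolding free energy was derived against a sequence-predicted unfolded-state K50 and a shared folded-state K50, per protease or combined. Only designs with AlphaFold2 dimer inter-PAE above 15 were kept.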

Row | Sequence | folding stability dG unfold [kcal/mol]
1 | SAGGSAGGPLVFEADATGTAPDDKELVIERVLVVVDPVRGEAHLYARIPGTGEWRYLGTFDLKDSAGGSAGG [r6_329_TrMRF] | 2.91 ± 0.093
2 | SAGGSAGVKSSSPNGLTLEFPFESEEEVEEAVKEIKKAFPENYEVKIEIEKSEKILKVKIIVKKKDSAGGSA [r15_80_TrMRF] | 1.08 ± 0.04
3 | SAGGIDLDNMSPEEAKERARDTVREFRELFPPEKKYKFKIKVTIDYRDPGNGRQRTVTVEAPIEFTPDSAGG [r13_385_TrROS] | 0.636 ± 0.12
4 | SAGGMTITFPEGITITFSPDNTATVTINFPGNPLTLTLNATTLEEVIETAKKAAEEFRKPPPKLVLKVSAGG [r13_896_JUSTAS] | 1.13 ± 0.035
5 | SAGGSAGGRIMIPVKNIKGQPAEEAKQWLKAILRELFPPGMKIDIDVQPDKDGEYWVTIDIKPPSAGGSAGG [r6_964_TrROS] | 1.64 ± 0.23
6 | SKKKVKTETVTLKIVNEKTGEEVELTLEFYEDGTVVKVTFPDGTTKEIKVGKTLEELLSLPPNAKIELIPSA [r9_781_TrROS_Hall] | 0.315 ± 0.12
7 | SAGGSKKTYIVDSPEEIAKLIESIPEEEYVFAIKGRPDGKPVVEIYSKENIEEAIKENPEIIIPVGSAGGSA [r2_351_TrMRF] | 0.287 ± 0.058
8 | SAGGSAGGMSIKVEVPGPYTVKIYRPDGKPIGEIEGEPGSVIEIDLNVPPGEAKNLIIEVYPTDSAGGSAGG [r6_471_TrMRF] | 1.61 ± 0.074
9 | SALEANIKKAEELAKPEEKVPEFPVKVGDLYIKSVRFFPSTKKVVLFLPNGEKIEADPNVTLEEILKAISAG [r14_59_TrMRF] | 0.759 ± 0.075
10 | SAGKEVEIKIEIVIKMTPEELKKLAEELAKKLKEAGFEVEVTVEEKEVNGELYAVITVTVRLPPGAKPPSAG [r5_217_TrROS_Hall] | 2.81 ± 0.36
11 | SAGGSMMKVTIVDKDGKERVFTFPKDMTEEEVLERIKKELEAEGVEVEEVEVERREDGSLVIRVKKSAGGSA [r2_148_TrROS_Hall] | 4.16 ± 0.4
12 | SAGAKIVSVEKVNGEKKITIKVKKEGDEIVIVFPKKNAKIEKKKNGTIEITIKEGETVIIVLKVKKKKSAGG [r19_227_TrROS_Hall] | 1.82 ± 0.051
13 | SAGGSAGGSAGTIPLDNIKEVELEYDPNSGYYEHRIEFPNGRRLVIRFPPSDNVEIQWLDSAGGSAGGSAGG [r17_182_TrROS] | 1.09 ± 0.025
14 | SDDPKDKKKPKPEITMVPIVFKIPPGDELKIEEDPNGMIEVRVPNGHWIRVWILVNPDGNILNVMIEPWPSA [r9_1195_TrROS] | 2.01 ± 0.15
15 | SARRDGSKVFLELERVVPLDVPLETVLEEVRRLFPEDAEIRLEAVPRRDLLDGVPREYRVVRVIVVRDDSAG [r14_633_TrMRF] | 1.06 ± 0.058
16 | SAMTKLVEFDSEEEYEAAVKAAAAAGESVLARLKDPSGTYTVVEVEVDPETGTVTVKKTEKVPVDGSLGSAG [r14_455_JUSTAS] | 0.622 ± 0.018
17 | SAGKKYIVVVNVDFGSPEKKESAPIVLELDEDEEVSEALAKIPGLEDVKVEVYVIEAEENPELAENPGSAGG [r19_339_TrMRF] | 0.31 ± 0.11
18 | SAGKFKIVKVEIKDGKITITVKNEKTGELVKKEITFDKKTKKLKIKLYNKNGKLIKEETKTLSLEELKKSAG [r5_308_TrROS_Hall] | 2.06 ± 0.093
19 | SAGIEIRIEAYMPWEEARDQVKEIARWLMSMFPGFKVDIDVDHEPVPNNMWVATVTIKIEPLPPGQPIFSAG [r5_936_TrROS] | 3.83 ± 0.1
20 | SAGGSAGGSAGKAVFIRELENGAIVLAVPFPDSVRLRVFPLTPGGEVESVEEFTLAPEELSAGGSAGGSAGG [r11_88_TrMRF] | -0.0256 ± 0.16
21 | SAGGSAGGSAGKVEITVEKNPETGLYTVRIKTEDGKEIEITVPKNMTLEELKKLAEELLKSAGGSAGGSAGG [r17_161_TrROS_Hall] | 4.43 ± 0.22

Assay: folding stability dG unfold (combined trypsin and chymotrypsin); higher = more stable
Method in brief: as §1

Row | Sequence | folding stability dG unfold [kcal/mol]
22 | SAGGSAMEIVAVEKGDNTVTLLLRDPETGELYTATFHFIPGSKTVHATVTFPDGSTATFTFDATALSAGGSA [r15_1055_TrMRF] | 4.01 ± 0.12
23 | SAGGSAGGSEKEGTLLVKLINPENPEEKVIPLKFKVKTKEDVDTFLENIKKKYPGVTVEVEDLSAGGSAGGS [r12_65_TrMRF] | 0.643 ± 0.17
24 | SAGGSAGGSNGKKIEIDIFWPRPMAETIVKELWKGSNIKPIKIKVIPMPEDDPKYKEFMDKLKSAGGSAGGS [r12_649_TrROS] | 0.247 ± 0.12
25 | SAGGSAGGSAKVEPVGVDPKNLVVVYRFENFTVAVTYDPESGKVTVRITDPDGNVLEFELSSAGGSAGGSAG [r3_25_TrMRF] | 3.71 ± 0.086
26 | SAGGSAGGKLVIGVFIPGLTPEQAEALVKLLEALGYPKENVTVVVFNVPALPPPGLEELLTKNGSAGGSAGG [r6_243_TrMRF] | 2.45 ± 0.16
27 | SAGGPGWQRIAKWEIPLPNGKDITIEPYYVNPNNNHYMYEIEIGDGKEIPFWVPPGDSPEDALDAILKSAGG [r13_470_TrROS] | -0.118 ± 0.16
28 | SAGGSAGGSAGGEAKIKLEVEETPGGLVIRAEVEVDGKLYEVELRIKGDEIVEVKIKPLDSAGGSAGGSAGG [r7_187_TrROS_Hall] | 2.5 ± 0.17
29 | SAGGSAGGSADVVVEVEYDSSGDYVLVKVKLKEKEIPFKFSKSLSPEEVIEKAKELAKKAAKSAGGSAGGSA [r18_266_TrMRF] | 0.677 ± 0.13
30 | SEEEVEEPEVRVEVREIRLDDLTEEERRRLRELAERLAREEPPEELPPGYRVRVEIRDGVIVSVEVEPVPSA [r9_905_TrROS_Hall] | 1.85 ± 0.16
31 | SAGGSAGGMTFKDPNSNTTASVTEVTPTSVTVTYTLSDGTTRTVTVPTSLVTPDSTVPFTVTSSSAGGSAGG [r6_152_JUSTAS] | 0.892 ± 0.064
